{"source": "paper PMC12012487", "key": {"[1]": {"target": "engineered strepII-tagged H77c-derived soluble native-like E1E2 (hepatitis C virus, strain H77c)", "assay": "mass photometry"}, "[2]": {"target": "engineered strepII-tagged H77c-derived soluble native-like E1E2 (Hepatitis C virus genotype 1a, isolate H77 (H77c))", "assay": "mass photometry"}}, "note": "Several values for one entry are separate records, joined by “and”; a condition that tells them apart may be missing. Equal entries are not always repeated."}
{"substance": "AR4A/AR3C IgG3C- hinge bispecific antibody (CrossMab)", "values": [{"measurement": "stoichiometry N", "setting": "[1]", "result": "1 E1E2:Ab"}]}
{"substance": "AR3C monoclonal antibody", "values": [{"measurement": "relative abundance of the 1:1 E1E2:Ab complex", "setting": "[2]", "result": 60, "unit": "%"}, {"measurement": "relative abundance of the 2:1 E1E2:Ab complex", "setting": "[2]", "result": 40, "unit": "%"}, {"measurement": "stoichiometry N", "setting": "[2]", "result": "1 E1E2:Ab and 2 E1E2:Ab"}]}
{"substance": "AR4A monoclonal antibody", "values": [{"measurement": "relative abundance of the 1:1 E1E2:Ab complex", "setting": "[2]", "result": 60, "unit": "%"}, {"measurement": "relative abundance of the 2:1 E1E2:Ab complex", "setting": "[2]", "result": 40, "unit": "%"}, {"measurement": "stoichiometry N", "setting": "[2]", "result": "1 E1E2:Ab and 2 E1E2:Ab"}]}
{"substance": "AR4A/AR3C IgG1 hinge bispecific antibody", "values": [{"measurement": "relative abundance of the 2:1 E1E2:Ab complex", "setting": "[1]", "result": 67, "unit": "%"}, {"measurement": "stoichiometry N", "setting": "[1]", "result": "2 E1E2:Ab"}, {"measurement": "stoichiometry N (E1E2:Ab (2:2 complex))", "setting": "[1]", "result": 1}, {"measurement": "stoichiometry N (E1E2:Ab (3:2 complex))", "setting": "[1]", "result": 1.5}]}
{"substance": "AR4A/AR3C CamX6 hinge bispecific antibody (CrossMab)", "values": [{"measurement": "stoichiometry N", "setting": "[1]", "result": "1 E1E2:Ab"}]}
